Measurements reported in US6291235.
One block for each substance: values may come before it.

What was measured:
[1] = target: A33 antigen on the surface of human colon cancer cells (human); experiment: rosetting assay on LOVO cells
[2] = target: A33 antigen on the surface of human colon cancer cells (human); experiment: rosetting assay on SW403 cells
[3] = target: A33 antigen on the surface of human colon cancer cells (human); experiment: rosetting assay on LS 180 cells
[4] = target: A33 antigen on the surface of human colon cancer cells (human); experiment: rosetting assay on SNC-2B cells
[5] = target: A33 antigen on the surface of human colon cancer cells (human); experiment: rosetting assay on SW1222 cells
[6] = target: A33 antigen on the surface of human colon cancer cells (human); experiment: rosetting assay on LS 174T cells
[7] = target: A33 antigen on the surface of human colon cancer cells (human); experiment: rosetting assay on LIM 1215 cells
[8] = target: A33 antigen on the surface of human colon cancer cells (human); experiment: rosetting assay on NCI-H508 cells
[9] = target: A33 antigen on the surface of human colon cancer cells (human); experiment: rosetting assay on SK-CO-17 cells
[10] = target: A33 antigen on the surface of human colon cancer cells (human); experiment: rosetting assay on SK-CO-19 cells
[11] = target: A33 antigen on the surface of human colon cancer cells (human); experiment: rosetting assay on ASPC-1 (pancreatic) cells
[12] = target: rabbit muscle actin (rabbit) (UniProt P68135); experiment: surface plasmon resonance (BIAcore), whole A33 immobilised, 0.3 µg rabbit muscle actin injected
[13] = target: rabbit muscle actin (rabbit) (UniProt P68135); experiment: surface plasmon resonance (BIAcore), F(ab)'2 immobilised, 0.3 µg rabbit muscle actin injected

Rosetting A. Titer [1]: 4096 | Rosetting A. Titer [2]: 8192 | Rosetting A. Titer [3]: 2048 | Rosetting A. Titer [4]: 4096 | Rosetting A. Titer [5]: 4096 | Rosetting A. Titer [6]: 4096 | Rosetting A. Titer [7]: 8192 | Rosetting A. Titer [8]: 4096 | Rosetting A. Titer [9]: 512 | Rosetting A. Titer [10]: 8192 | Rosetting A. Titer [11]: 8192
Substance: monoclonal antibody A33 (mAb A33), murine immunoglobulin, isotype IgG2a, secreted by hybridoma ATCC No. HB 8779

signal at the end of the injection pulse (RU) [12]: 247 RU
Substance: whole A33 (A33 IgG) immobilised on the biosensor surface (antibody)

signal at the end of the injection pulse (RU) [13]: 4 RU
Substance: F(ab)'2 fragment of A33 humanized monoclonal antibody
